{"source": "paper PMC3168947", "about": "(Molecular cell, 2011)", "key": {"ClpA6": {"biological_target": "ClpA6 (Escherichia coli, UniProt P0A8Q6+P0ABH9, C101S/C73V/E96C)", "sequence (P0A8Q6 whole entry C73V/E96C/C101S, one chain of several)": "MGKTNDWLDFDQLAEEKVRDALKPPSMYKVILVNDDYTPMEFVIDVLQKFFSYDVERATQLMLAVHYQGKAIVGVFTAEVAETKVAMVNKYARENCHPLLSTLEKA", "type": "binding, E. coli", "details": "for Kapp of ClpA6 for ClpS*^F in presence of peptide: fluorescence anisotropy, 200 nM ClpS*^F, 20 μM peptide, ATPγS, Fig. 3A; for ClpA6 bound ClpS*^F more tightly, fold: excess peptide, compared with […] peptide or absence of ligand"}, "ClpAP": {"system": "ClpAP", "experiment": "ClpAPS degradation of YLFVQELA-GFP", "type": "biochemical, E. coli"}, "[1]": {"biological_target": "T1, fluorescent N-end-rule peptide LLYVQRDSKEC-fl", "T1 peptide": "LLYVQRDSKEC(fluorescein maleimide)", "experiment": "fluorescence polarisation"}}, "note": "No end group written: not given here."}
{"molecule": "MLYVQRDSKEC", "values": [{"measurement": "Kapp of ClpA6 for ClpS*^F in presence of peptide", "setting": "ClpA6", "value": "~ 180 nM"}]}
{"molecule": "Trp-CONH2", "values": [{"measurement": "ClpA6 bound ClpS*^F more tightly, fold", "setting": "ClpA6", "value": "at least 9 fold"}]}
{"molecule": "Phe-Val [FV]", "values": [{"measurement": "ClpA6 bound ClpS*^F more tightly, fold", "setting": "ClpA6", "value": "at least 9 fold"}, {"measurement": "Kapp of ClpA6 for ClpS*^F in presence of peptide", "setting": "ClpA6", "value": "< 20", "unit": "nM"}]}
{"molecule": "*L13 ClpS with ClpA6 (complex, E. coli) chain 1: MLNQELELSLNMAFARAREHRHEFMTVEHLLLALLSNPSAREALEACSVDLVALRQELEAFIEQTTPVLPASEEERDTQPTLSFQRVLQRAVFHVQSSGRNEVTGANVLVAIFSEQESQAAYLLRKHEVSRLDVVNFISHGTRKDEPTQSSDPGSQPNSEEQAGGEERMENFTTNLNQLARVGGIDPLIGREKELERAIQVLCRRRKNNPLLVGESGVGKTAIAEGLAWRIVQGDVPEVMADCTIYSLDIGSLLAGTKYRGDFEKRFKALLKQLEQDTNSILFIDEIHTIIGAGAASGGQVDAANLIKPLLSSGKIRVIGSTTYQEFSNIFEKDRALARRFQKIDITEPSIEETVQIINGLKPKYEAHHDVRYTAKAVRAAVELAVKYINDRHLPDKAIDVIDEAGARARLMPVSKRKKTVNVADIESVVARIARIPEKSVSQSDRDTLKNLGDRLKMLVFGQDKAIEALTEAIKMARAGLGHEHKPVGSFLFAGPTGVGKTEVTVQLSKALGIELLRFDMSEYMERHTVSRLIGAPPGYVGFDQGGLLTDAVIKHPHAVLLLDEIEKAHPDVFNILLQVMDNGTLTDNNGRKADFRNVVLVMTTNAGVRETERKSIGLIHQDNSTDAMEEIKKIFTPEFRNRLDNIIWFDHLSTDVIHQVVDKFIVELQVQLDQKGVSLEVSQEARNWLAEKGYDRAMGARPMARVIQDNLKKPLANELLFGSLVDGGQVTVALDKEKNELTYGFQSAQKHKAEAAH chain 2: MLAEEKVRDALKPPSMYKVILVNDDYTPMEFVIDVLQKFFSYDVERATQLMLAVHYQGKAICGVFTAEVAETKVAMVNKYARENEHPLLCTLEKA", "values": [{"measurement": "K2 (unimolecular engagement step, global fit)", "setting": "ClpAP; YLFVQELA-GFP degradation, Vmax = Etotal•kdeg/(1+K2), KM = K1•K2/(1+K2), Fig. 4B", "value": 0.74}, {"measurement": "steady-state degradation kinetics, in words", "setting": "ClpAP; YLFVQELA-GFP, 100 nM ClpA6, 200 nM ClpP14, 600 nM ClpS or variants, Fig. 4B", "value": "roughly similar steady-state degradation kinetics"}, {"measurement": "reduction in Vmax compared to ClpS, fold", "setting": "ClpAP; YLFVQELA-GFP, 100 nM ClpA6, 200 nM ClpP14, 600 nM ClpS variant, Fig. 4B", "value": 1.3, "unit": "fold"}, {"measurement": "delivery of N-end-rule substrate for ClpAP degradation", "setting": "ClpAP; YLFVQELA-GFP, ClpS variants, in words", "value": "mediated efficient substrate degradation"}, {"measurement": "Kd", "setting": "[1]", "value": 0.1, "unit": "µM"}]}
{"molecule": "*V18 ClpS with ClpA6 (complex, E. coli) chain 1: MLNQELELSLNMAFARAREHRHEFMTVEHLLLALLSNPSAREALEACSVDLVALRQELEAFIEQTTPVLPASEEERDTQPTLSFQRVLQRAVFHVQSSGRNEVTGANVLVAIFSEQESQAAYLLRKHEVSRLDVVNFISHGTRKDEPTQSSDPGSQPNSEEQAGGEERMENFTTNLNQLARVGGIDPLIGREKELERAIQVLCRRRKNNPLLVGESGVGKTAIAEGLAWRIVQGDVPEVMADCTIYSLDIGSLLAGTKYRGDFEKRFKALLKQLEQDTNSILFIDEIHTIIGAGAASGGQVDAANLIKPLLSSGKIRVIGSTTYQEFSNIFEKDRALARRFQKIDITEPSIEETVQIINGLKPKYEAHHDVRYTAKAVRAAVELAVKYINDRHLPDKAIDVIDEAGARARLMPVSKRKKTVNVADIESVVARIARIPEKSVSQSDRDTLKNLGDRLKMLVFGQDKAIEALTEAIKMARAGLGHEHKPVGSFLFAGPTGVGKTEVTVQLSKALGIELLRFDMSEYMERHTVSRLIGAPPGYVGFDQGGLLTDAVIKHPHAVLLLDEIEKAHPDVFNILLQVMDNGTLTDNNGRKADFRNVVLVMTTNAGVRETERKSIGLIHQDNSTDAMEEIKKIFTPEFRNRLDNIIWFDHLSTDVIHQVVDKFIVELQVQLDQKGVSLEVSQEARNWLAEKGYDRAMGARPMARVIQDNLKKPLANELLFGSLVDGGQVTVALDKEKNELTYGFQSAQKHKAEAAH chain 2: MVRDALKPPSMYKVILVNDDYTPMEFVIDVLQKFFSYDVERATQLMLAVHYQGKAICGVFTAEVAETKVAMVNKYARENEHPLLCTLEKA", "values": [{"measurement": "Kd", "setting": "[1]", "value": 0.083, "unit": "µM"}]}
